Source: publication PMC3405053

Target: MKP-3, endogenous in mouse liver (mouse (endogenous in C57BL/6 liver)) (UniProt Q9DBB1)
Experiment: co-IP; liver lysates of C57BL/6 mice injected with adenoviruses (GFP or FOXO1 3A, plus shGFP or shMKP-3); MKP-3 immunoprecipitated with MKP-3 antibody-bound Exactra D matrix; western blot for FOXO1, quantified

UniProt Q9DBB1, sequence (Q9DBB1 whole entry): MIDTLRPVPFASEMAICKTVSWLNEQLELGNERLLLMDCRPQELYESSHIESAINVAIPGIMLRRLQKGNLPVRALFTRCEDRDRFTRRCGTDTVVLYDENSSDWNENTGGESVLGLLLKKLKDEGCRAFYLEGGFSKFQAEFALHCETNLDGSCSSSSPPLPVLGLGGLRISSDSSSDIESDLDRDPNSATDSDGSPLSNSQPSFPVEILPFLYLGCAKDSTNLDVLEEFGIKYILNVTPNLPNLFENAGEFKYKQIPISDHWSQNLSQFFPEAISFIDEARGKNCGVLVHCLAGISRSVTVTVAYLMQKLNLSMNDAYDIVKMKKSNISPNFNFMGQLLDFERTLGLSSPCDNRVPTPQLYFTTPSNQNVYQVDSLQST

## FOXO1 3A (Akt phosphorylation resistant FOXO1 mutant), over-expressed in mouse liver (from UniProt Q9R1E0 1-652) (natural protein)
  fold of FOXO1/FOXO1 3A protein associated with MKP-3 compared to GFP control: 7.9 fold
